Assay results from patent US20050154189A1 (MAXYGEN, published 2005).
Numbering of substitutions follows the chain as printed.

B1: Round 2 CD28BP-8 (ligand)
chain: ITPKSVTKRVKETVMLSCDYNTSTEELTSLRIYWQKDSKMVLAILPGKVQVWPEYKNRTITDMNDNPRIVILALRLSDSGTYTCVIQKPVLKGAYKLEHLASVRLMIRADFPVPSITDIGHPAPNVKRIRCSASGGFPEPRLAWMEDGEELNAVNTTVDQDLDTELYSVSSELDSNVTNNHSIVCLIKYGELSVSQIFPWSKPKQEPPIDQLPFWVIIPVSGALVLTAVVLYCLACRHVARWKRTRRNEETVGTERLSPIYLGSAQSSG
notes: also called clone CD28BP-8
B2: Round 2 CD28C7-3 (ligand)
chain: B1 chain with N21S, V90D, A101T, G136D, S175F
B3: Round 2 CD28G1-9 (ligand)
chain: B1 chain with A101T, S175F
B4: Round 2 CD28F12-5* (ligand)
chain: B1 chain with V90D, G136D, S175F
B5: Round 2 CD28F10-2 (ligand)
chain: B1 chain with V90D, A101T, G136D, S175F
B6: Round 2 CD28F11-8 (ligand)
chain: ITPKSVTKRVKETVMLSCDYNTSTEELTSLRIYWQKDSKMVLAILPGKVQVWPEYKNRTITDMNDNPRIVILALRLSDSGTYTCVIQKPVLKGAYKLEHLTSVRLMIRADFPVPTINDLGNPSPNIRRLICSTSGGFPRPHLYWLENGEELNATNTTLSQDPETKLYMISSELDFNMTSNLCLVKYGDLTVSQTFYWQESKPTPSANQHLTWTIIIPVSAFGISVIIAVILTCLTCRNAAIRRQRRENEVEMQSCSQSP
B7: Round 2 CD28A2-5 (ligand)
chain: ITPKSVTKRVKETVMLSCDYNTSTEELTSLRIYWQKDSKMVLAILPGKVQVWPEYKNRTITDMNDNPRIVILALRLSDSGTYTCVIQKPDLKGAYKLEHLASVRLMIRADFPVPSITDIGHPAPNVKRIRCSASGGFPEPRLAWMEDGEELNAVNTTVDQDLDTELYSVSSELDFNMTSNHSFLCLVKYGDLTVSQTFYWQESKPTPSANQHLTWTIIIPVSAFGISVIIAVILTCLTCRNAAIRRQRRENEGKCKVLSVSIGTKLKFNR
B8: Round 2 CD28B6-6 (ligand)
chain: ITPKSVTKRVKETVMLSCDYSTSTEELTSLRIYWQKDSKMVLAILPGKVQVWPEYKNRTITDMNDNPRIVILALRLSDKGTYTCVIQKPVLKGAYKLEHLTSVTLSIRADFPVPSITDIGHPAPNVKRIRCSASGGFPEPRLAWMEDGEELNAVNTTVDQDLDTELYSVSSELDFNATNNHSIVCLIKYGELSVSQIFPWSKPKQEPPIDQLPFWVIVPVSGALVLTAVVLYCLACRHVAR
B9: Round 2 CD28B4-5* (ligand)
chain: SGITPKSVTKRVKETVMLSCDYNTSTEELTSLRIYWQKDSKMVLAILPGKVQVWPEYKNRTITDMNDNPRIVILALRLSDKGTYTCVVQKPDLKGAYKLEHLASVRLMIRADFPVPSITDIGHPAPNVKRIRCSASGGFPEPRLAWMEDGEELNAVNTTVDQDLDTELYSVSSELDFNVTNNHSIVCLIKYGELSVSQIFPWSKPKQEPPIDQLPFWVIIPVSGALVLTAVVLYCLACRHVARWKRTRRNEETVGTERLSPIYLGSAQSSG
B10: Round 2 CD28BP-14 (ligand)
chain: GISQVTKSVKEMAALSCDYNISIDELARMRIYWQKDQQMVLSIISGQVEVWPEYKNRTITDMNDNPRIVILALRLSDSGTYTCVIQKPVLKGAYKLEHLASVRLMIRADFPVPTINDLGNPSPNIRRLICSTSGGFPRPHLYWLENGEELNATNTTVSQDPGTELYMISSELDFNVTNNHSIVCLIKYGELSVSQIFPWSKPKQEPPIDQLPFWVIIPVSGALVLTAVVLYCLACRHVARWKRTRRNEETVGTERLSPIYLGSAQSSG
B11: Round 2 CD28D11-1 (ligand)
chain: ITPKSVTKRVKETVMLSCDYNTSTEELTSLRIYWQKDSKMVLAILPGKVQVWPEYKNRTITDMNDNPRIVILALRLSDSGTYTCVVQKNENGSFRREHLTSVTLSIRADFPVPSITDIGHPAPNVKRIRCSASGDFPEPRLAWMEDGEELNAVNTTVDQDLDTELYSVSSELDFNVTNNHSIVCLIKYGELSVSQIFPWSKPKQEPPIDQLPFWVIILVSGALVLTAVVLYCLACRHVARWKRTRRNEETVGTERLSPIYLGSAQSSG
B12: Round 2 CD28C2-4 (ligand)
chain: GISQVTKSVKEMAALSCDYNISIDELARMRIYWQKDQQMVLSIISGQVEVWPEYKNRTITDMNDNPRIVILALRLSDSGTYTCVIQKPVLKGAYKPEHLASVRLMIRADFPVPTINDLGNPSPNIRRLICSTSGGFPRPHLYWLENGEELNATNTTLSQDPETKLYMISSELDFNMTSNHSFLCLVKYGDLTVSQTFYWQESKPTPSANQHLTWTIIIPVSAFGISVIIAVILTCLTCRNAAIRRQRRENEVEMQSCSQSP
B13: Round 2 CD28D2-3 (ligand)
chain: ITPKSVTKRVKETVMLSCDYNTSTEELTSLRIYWQKDSKMVLAILPGKVQVWPEYKNRTITDMNDNPRIVIQALRLSDSGTYTCVIQKPVLKGAYKLEHLASVRLMIRADFPVPTDLGNPSPNIRRLICSTSGGFPRPHLYWLENGEELNATNTTVSQDPGTELYMISSELDFNVTNNHSIVCLIKYGELSVSQIFPWSKPKQEPPIDQLPFWVIIPVSGALVLTAVVLYCLACRHVARWKRTRRNEETVGTERLSPIYLGSAQSSG
B14: Round 2 CD28H6-6 (ligand)
chain: ITPKSVTKRVKETVMLSCDYSTSTEELTSLRIYWQKDSKMVLAILPGKVQVWPEYKNRTITDMNDNPRIVILALRLSDSGTYTCVIQKPVLKGAYKLEHLASVRLMIRADFPVPTINDLGNPSPNIRRLICSGFPRPHLYWLENGEELNATNTTVSQDPGTELYMISSELDFNVTNNHSIVCLIKYGELSVSQIFPWSKPKQEPPIDQLPFWVIIPVSGALVLTAVVLYCLACRHVARWKRTRRNEETVGTERLSPIYLGSAQSSG
B15: Round 2 CD28D10-4 (ligand)
chain: SGITPKSVTKRVKETVMLSCDYNTSTEELTSLRIYWQKDSKMVLAILPGKVQVWPEYKNRTITDMNDNPRIVILALRLSDKGTYTCVVQKNENGSFRREHLTSVTLSIRADFPVPSITDIGHPAPNVKRIRCSASGGFPEPRLAWMEDGEELNAVNTTVDQDLDTELYSVSSELDFNVTNNHSIVCLIKYGELSVSQIFPWSKPKQEPPIDQLPFWVIIPVSGALVLTAVVLYCLACRHVARWKRTRRNEETVGTERLSPIYLGSAQSSG
B16: Round 2 CD28A8-6 (ligand)
chain: B15 chain with L18P, N23S, K81S
B17: Round 2 CD28BP-11 (ligand)
chain: B15 chain with T24A
B18: Round 2 CD28BP-17 (ligand)
chain: SGITPKSVTKRVKETVMLSCDYSTSTEELTSLRIYWQKDSKMVLAILPGKVQVWPEYKNRTFPDIINNLSLMILALRLSDKGTYTCVVQKNENGSFRREHLTSVTLSIRADFPVPSITDIGHPAPNVKRIRCSASGDFPEPRLAWMEDGEELNAVNTTVDQDLDTELYSVSSELDFNVTNNHSIVCLIKYGELSVSQIFPWSKPKQEPPIDQLPFWVIIPVSGALVLTVVVLYCLACRHVARWKRTRRNEETVGTERLSPIYLGSAQSSG
B19: Round 2 CD28F3-5 (ligand)
chain: B15 chain with K81S
B20: Round 2 CD28G1-5 (ligand)
chain: B18 chain with P115S, D137G, V229A
B21: Round 2 CD28D12-5 (ligand)
chain: ITPKSVTKRVKETVMLSCDYSTSTEELTSLRIYWQKDSKMVLAILPGKVQVWPEYKNRTITDMNDNPRIVILALRLSDSGTYTCVIQKPVLKGAYKLEHLASVRLMIRADFPVPSITDIGHPAPNVKRIRCSASGDFPEPRLAWMEDGEELNAVNTTVLDTELYSVSSELDFNVTNNHSIVCLIKYGELSVSQIFPWSKPKQEPPIDQLPFWVIIPVSGALVLTAVVLYCLACRHVARWKRTRRNEETVGTERLSPIYLGSAQPSG

Target: T1, Soluble CD28-Ig (human, UniProt P10747 19-152, biotin-conjugated (NHS-biotin) in the labelled-ligand FACS assays)
T1 construct: extracellular domain; Bought from R&D Systems; also called sCD28-Ig; CD28-Ig Fc; not shown: Fc portion of human IgG1
Assay: two-colour FACS profile on transfected cells; score of preference for CD28-Ig over CTLA-4-Ig vs WT hB7-1

| Binder | Binding Score |
| --- | --- |
| B1 | 2 |
| B2 | 1 |
| B3 | 1 |
| B4 | 1 |
| B5 | 1 |
| B6 | 0 |
| B7 | 0 |
| B8 | 1 |
| B9 | 0 |
| B10 | 2 |
| B11 | 2 |
| B12 | 1 |
| B13 | 1 |
| B14 | 1 |
| B15 | 0 |
| B16 | 1 |
| B17 | 2 |
| B18 | 2 |
| B19 | 0 |
| B20 | 1 |
| B21 | 2 |
